Variants at the floor of the assay were thinned out.
B1: TPR 5TU (parent)
chain: GGAUCUUCUCGAUCUAACAAAAAAGACAAAUCUGCCACAAAGCUUGAGAGCAUCUUCGGAUGCAGAGGCGGCAGCCUUCGGUGGCGCGAUAGCGCCAACGUUCUCAACUAUGACACGCAAAACGCGUGCUCCGUUGAAUGGAGUUUAUCAUG

Variants of: B1
Assay: polymerase ribozyme fitness, log enrichment relative to wild type (log ratio); higher = more active; in vitro selection for triplet polymerase activity
Outline: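 One round of in vitro selection, in triplicate, was applied to PCR-built, transcribed mutant libraries of each subunit of a heterodimeric triplet polymerase ribozyme. The steps were annealing with a biotinylated primer, partner subunit and triplets, incubation frozen at −7 °C, gel excision of extended constructs, streptavidin-bead capture and RT-PCR. Fitness is the logarithm, base 2, of genotype enrichment over wild-type enrichment from inverse-variance-weighted replicate averages of Illumina-sequenced inputs and outputs, keeping genotypes with ≥10 input reads and ≥1 read per output.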

| Variant | polymerase ribozyme fitness (log ratio) |
| --- | --- |
| GGAUCUUCUCGAUCUAACAAACAAGACAAAUCUGCCACAAAGCUUGAGAGCAUCUUCGGUUGCAGUGGCGGCAGCCUUCGGUGGCGCGAUAGUGCCAACCUUCUCAACUAUGACACGCAAAACGCGUGCUCCGUUGAGUGGAGUUUAUAAUG | ≤ -4.2 |
| GGAUCUUCUCGAUCUAACAAACAAGACAAAUCUGCCACAAAGCUUGAGAGCAUCUUCGGAUGCAGAGGCGGCAGCCUUCGGUUGCGCGAUAGCGCCAACGUUCUCAACUAUGACGCGCAAAACGCGUGCUCCGUUGAAUGGAGUUUAUCAUG | -1.96 |
| GGAUCUUCUCGAUCUAACAAACAAGACAAAUCUGCCACACAGCUUGAGAGCAUCUUCGGAUGGAGAGGCGGCAGCCUUCGGUGGCGCGAUAGCGCCAACGUUCUCAACUAUGACACGCAAAACGCGUGCUCCGUUGAAUGGAGUUUAUCAUG | 0.514 |
| GGAUCUUCUCGAUCUAACAAACAAGACAAAUCUGCCACAAAGCUUGAGAGCAUCUUCGGAUGCACAGGCGGCAGCCUUCUGUGGCGCGAUGGCGCCAACGUUCUCAACUAUGACACGCAAAACGCGUGCUCCGUUGAAUGGAGUUUAUCAUG | ≤ -4.2 |
| GGAUCUUCUCGAUCUAACAAACAAGACAAAUCUGCCACAAAGCUUGAGAGCAUCUUCGGAUGCAGAGGCGGCAGCCUUCGGUGGCGCGAUAGCGCUAACGUUCUCAACUAUGACACGCAAAACGCGUGCUCCGUUGAAUGGAGUUUAUCAUG | -0.0389 |
| GGAUCUUCUCGAUCUAACAAACAAGACAAAUCUGCCACAAAGCUUGAGACCAUCUUGGGAUGCAGAGGCGGCAGCCUUCUGUGGCGAGAUAGCGCCAACGUUCUCAACUAUGACACGCAAAACGCGUGCUCCGUUGAAUGGAGUUUAUCUUG | ≤ -4.2 |
| GGAUCUUCUCGAUCUAACAAACAAGACAAAUCUGCCACAAAGCUUGAGAGUAUCUACGGAUGCAGAGGCGGCAGCCUUCGGUGGCGCGAUAUCGCCAACCGUGUCAACUAUGACACGCAAAACGCGUGCUCCGUUGAAUGGAUUUUAUCAUA | ≤ -4.2 |
| GGAUCUUCUCGAUCUAACAAACAAGACAAAUCUGCCACAAAGCUUGAGAGCAUCUUCGGCUUCAGAGGCGGCAGCCUUCGGUGGCGCGAUAGCGCCAACGUUCUCAACUAUGACACGCAAAACGCGUGCUCCGUUGAAUGGAGUUUAUCAUG | -2.13 |
| GGAUCUUCUCGAUCUAACAAACAAGACAAAUCUGCCACAAAGCUUGAGAGCAUCUUUGGAUGCAGAGGCGGCAGCCUUCGGUGGCGCGAUAGCGCCAACGUUCUCAACUAUGACACGCAAAACGCGUGCUCCGUUGAAUGGAGUUUAUCAUG | -0.765 |
| GGAUCUUCUCGAUCUAACAAACAAGACAAAUCUGCCACAAAGCUUGAGAGCAUCUUCGGAUGCAGAGGCGGCAGCCUUCGGUGGCGCGAUAGCGUCAACGUUCUCAACUAUGACACGCAAAACGCGUGCUCCGUUGAUUGGAGUUUAUCAUG | ≤ -4.2 |
| GGAUCUUCUCGAUCUAACAAACAAGACAAAUCUACCACAAAGCUUGAGAGCAUCUUCGGAUGCGGAGGCGGCAGCCUUCGGUGGCGCGAUAGCGCCAACGUUCUCAACUAUGACACGCAAAACGCGUGCUCCGUUGAAUGGAGGUUAUCAAG | -4.04 |
| GGAUCUUCUCGAUCUAACAAACAAGACAAAUCUGCCACAAAGCUUGAGAGCAUCUUCGGAUGCAGAGGCGGCAGCAUUCGGUGGAGCGAUAGUGCCAACGUUCUCAACUAUGACACGCAAAACGCGUGCUCAGUUGAAUGGUGUUUAUCAUG | ≤ -4.2 |
| GGAUCUUCUCGAUCUAACAAACAAGACAAAUCUGCCACACAGCUUGAGAGCAUCUUCGGAUGCAGAGGCGGCAGCCUUCGGUGGCGCGAUAGCACCAACGUUCUCAACUAUGACACGCGAAACGCGUGCUCCGUUGAAUGGAGUUUAUCAUG | 0.789 |
| GGAUCUUCUCGAUCUAACAAACAAGACAAAUCUGCCACAAAGCUUGAGAGCAUCUUCGGAUGCAGAGGCGCCAGCCUUUGGUGGCGCGAUAGCGGCAACGUUCUCAACUAUGACACGCAAAACGCGUGCUCCGUUGAAUGGAACUUAUCAUG | ≤ -4.2 |
| GGAUCUUCUCGAUCUAACAAACAAGACAAAUCUGCCACAAAGCUUGAGAGCAUCUUCGGAUGCAGAGGCGGCAGCCUUCGGUGGCGUGAUAGCGCCAACGUUCUCAACUAUGACACGCAAAAGGCGUGCUCCGUUGAAUGGAGUUUAUCAUG | -0.845 |
| GGAUCUUCUCGAUCUAACAAACAAGAUAAAUCUGCCACAAAGCUUGAGAGCAUCUUCGGAUGCAGAGGCGGCAGCCUUCGGUGGCGCGAUAGCGCCAACGUUCUCAACUAUGACACGCAAAACGCGCGCUCCGUUGAAUGGAGUUUAUCAUG | -3.95 |
| GGAUCUUCUCGAUCUAACAAACAAGACAAAUCUGCCACAAAGCUUGAGAGCAUAUUCGGAUGCAGAGGCGGCAGCCUUCGGUGGCGCGAUAGCACCAUCGUUCUCAACUAUGACACGCAAAACGCGUGCUCCGUUGAAUGGAGUUUAUCAUG | -1.82 |
| GGAUCUUCUCGAUCUAACAAACAAGACAAAUCUGCCACAAAGCUUGAGAGCAUCUUCGGAUGCAGAGGCGGCAGCCUUCGGUGGGGCGAUAGCGCCAACGUUCUCAACUAUGACACGCAAAACGCGUGCUCCGUUGAAUGGAGUUUAUCAUG | -2.43 |
| GGAUCUUCUCGAUCUAACAAACAAAACAAAUCUGCCACAAAGCUUGAGAGCAUCUUCGGAUGCAGAGGCGGCAGCCUUCGGUGGCGCGAUAGUGCCAACGUUCUCAACUAUGACACGAAAAACGCGUGCUCCGUUGAAUGGAGUUUAUCAUG | ≤ -4.2 |

| Variant | polymerase ribozyme fitness (log ratio) |
| --- | --- |
| GGAUCUUCUCGAUCUAACAAACAAGACAAAUCUGCCAUAAAGCUUGAGAGCAUCUUCGGAUGCAGAGGCGGCAGCCUUCGGUCGCGCGAUAGCGCCAACGUUCUCAACUAUGACACGCAAAGCGCGUGCUCCGUUGAAUGUAGUUUAUCAUG | 0.178 |
| GGAUCUUCUCGAUCUAACAAACAAGACAAAUCUGCCACAAAGCUUAAGAGCAUCUUCGGAUGCAGAGGCGGCAGCUUUCGGUGGCGCGAUAGCGCCAACGUUCUCAACUAUGACACGCAAAACGCGUGCUCCGUUGAAUGGAGUUUAUCAUG | ≤ -4.2 |
| GGAUCUUCUCGAUCUAACAAACAAGACAAAUCUGCCACAUAGCUUGAGAGCAUCUUCGGAUGCAGAGGCGGCAGCCUUCGUUGGCGCGAUAGAGCCAAUGUUCUCAACUAUGACAAGCAAAACGCGUGCUCCGUUGAAUGGAGUUUAUCAUG | -3.08 |
| GGAUCUUCUCGAUCUAACAAACAAGACAAAUCUGCCACAAAGCUUGAGAGCAUCUUCGGAUGCAGAGGCGGCAGCCUUCGGUGGGGCGAUAGCGCCAACGUUCUCAACUAUGACACGCAAAACGCGUGCUCCGUUGAAUGGAGUUUAUCGUG | -2.71 |
| GGAUCUUCUCGAUCUAACAAACAAGACAAAUCUGCCACAAAGCUUGAGAGCAUCUUCGGGUGCAGAGGCGGCAGCCUUCGGUGGCGCGAUAGCGCGAACGUUCUCAACUAUGAAACGCAAAACGCGUGCUGCGUUGAAUGGAGUUUAUCAUG | ≤ -4.2 |
| GGAUCUUCUCGAUCUAACAAACAAGACAAAUCUGCCACAAAGCUUGAGAGCAUCUUCGGAUGCAGAGGCGGCAGCCUUCGGUGGCGCGAUAGCGCCAGCGUUCUCAACUAUGACACGCAAAACGCGUGCUCCGUUGAAUGGAGUUUAUCAUG | -0.486 |
| GGAUCUUCUCGAUCUAACAAACAAGACAAAUCUGCCACAAAGCUUGAGAGCAUCUUCGGAUGCAGAGGUGGCAGCCUUCGGUGGCGCGAUAGUGCCAACGUUCUCAACUAUGACACGCAAAACGCGUGCUCCGUUGAAUGGAGUUUAUCAUG | -1.59 |
| GGAUCUUCUCGAUCUAACAAACAAGACAAAUCUGCCACAAAUCUUGGGAGCAUCUUCGGAUGCAGAGGCGGCAGCGUUCGGUGGCGCGAUGGCGCCAACGUUCUCUACUGUGACACGCAAAACGCGUGCUCCGUUGAAUGGAGUUUAUCAUG | ≤ -4.2 |
| GGAUCUUCUCGAUCUAACAAACAAGACAAAUCUGCCACAAAGCUUGAGAGCAUCUUCAGAUGCAGAGGCGGAAGCCUUCGGUGGCGGGAUAGCGCCAACGUUCUCAACUAUGACACGCAAAACGGUUGCUCCGUUGAAUGGAGUUUAUCAUG | ≤ -4.2 |
| GGAUCUUCUCGAUCUAACAAACAAGACAAAUCUGCCACAAAGCUUGAGAGCAUCUUCGGAUGCAGAGGCGGCAGCCUUCGGUGGCGCGGUAGCGACAACGUUAUCAACUAUGACACGCAAAACUCGUGCUCCGUUGAAUGGAGUUUAUCAUG | -4 |
| GGAUCUUCUCGAUCUAACAAACAAGACAAAUCUGCCACAAAGCUUGAGAGCAUCUUCGGAUGCAAAGGCGGCAGCCUUCGGUGGCGCGAUAGCGCCAACGUUCGCACCUAUGACACGCAAAACGCGGGCUCCGUUGAAUGGAGUUUAUCAUG | ≤ -4.2 |
| GGAUCUUCUCGAUCUAACAAACAAGACAAAUCUGCCACAAAGCUUGAGAGCAUCUUCGGAUGCAGAGGCCGCAGCCUUCGGUGGCGCGAUAGCGCCAACGUUCUCAACUAUGACACGCAAAACGCGUGCUCCGUUGAAUGGAGUUUAUCAUG | -4 |
| GGAUCUUCUCGAUCUAACAAACAAGACAAAUCUGCCACAAAGCUUGAGAGCAUCUUCGGAUGCAGAGGCGGCAGCCUUCGAUGGCGCGAUAGCGCCAACGUUCUCAACUAUGACACGCAAAACGCGUGCUCCGUUGAAUGGAGUUUAUCAUG | -0.137 |
| GGAUCUUCUCGAUCUAACAAACAAGACAAAUCUGCCACAAAGCUUGAGAGUAUCGUCGGAUGCAGAAGCGGCAGCCUUCGGUGCCGCGAUAGCGCCAACGUUCUCAACUAUGACUCGCAAAACGCGUGCUCCGUUGAAUCGAGUUUAUCAUG | ≤ -4.2 |
| GGAUCUUCUCGAUCUAACAAACAAGACAAAUCUGCCUCAAAGCUUGACAGCAUCUUCGGAUGCAGAGGCGGCAGCCUUCGGUGGCGUGAUAGCGCCAACGUUCUCAACUAUGACACGCAAAACACGUGCUCCGCUGAAUGGAGUUUAUCAUG | -4.18 |
| GGAUCUUCUCGAUCUAACAAACAAGACAAAUCUGCCACUAAGCUUGAGAGCAUCUUCGGAUGCAGAGGCGGCAGCCUUCGGUGGCGCGAUAGCGCCAACGUUCUCAACUAUGACACGCAAAACGCGUGCUCCGUUGAAAGGAGUUUAUCAUG | ≤ -4.2 |
| GGAUCUUCUCGAUCUAACAAACAAGACAAAUCUGCCACAAAGCUUGAGAGCCUCUUCGGAUGCAGAGGCGGCAGCCUUCGGUGGCGCGAUAGCGCCAACGUUCUCAACUAUGACACGCAAAACGCGUGCUCCGUUGAAUGGAGUUUAUCAUG | -1.04 |
| GGAUCUUCUCGAUCUAACAAACAAGACAAAUCUGCCCCAAAGCUUGAGAGCAUCUUCGUAUGCAGAGGCGGCAGCCUUCGGUGGCGCGUUAGGGCCAACGUUCUCAACUAUGACACGCUAAACGCGUGCUCCGUUGAAUGGAGUUUAUCAUG | ≤ -4.2 |
| GGAUCUUCUCGAUCUAACAAACAAGACAAAUCUGCCACAAAGCUUGAGAGCAUCUUCGGAUGCAGAGGCGGCAGCCUUAGGUUGCGCGAUAGCGCCAACGUUCUCAACUAUGACGCGCAAAACGCGUGCUCCGUUGAAUGAAGUUUAUCAUG | ≤ -4.2 |
